In patent publication US20050048055A1 one finds increase in Vα8 expression in gated DP thymocytes and percent Vα11+ thymocytes data, which are given here for 1 substance.

This experiment addresses mouse CD40 on BALB/c thymocytes (mouse) (UniProt P27512). Put plainly: cell-based or functional assay.
Chain of UniProt P27512 (P27512 20-289): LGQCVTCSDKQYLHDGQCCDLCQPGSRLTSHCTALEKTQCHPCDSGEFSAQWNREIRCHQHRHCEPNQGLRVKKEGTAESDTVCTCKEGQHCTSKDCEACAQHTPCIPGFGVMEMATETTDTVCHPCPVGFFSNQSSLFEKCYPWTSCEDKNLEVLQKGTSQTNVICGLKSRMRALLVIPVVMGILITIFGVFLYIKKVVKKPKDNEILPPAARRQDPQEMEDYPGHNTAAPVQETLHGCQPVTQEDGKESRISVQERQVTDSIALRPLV

The substance “rat IgG anti-mouse CD40, 1C10 (antibody)” gave an increase in Vα8 expression in gated DP thymocytes of 12% and a percent Vα11+ thymocytes of 3.3%.
